Data from patent publication US10369187B2, “Peptide regulators of JNK family kinases” (Vanderbilt University, priority 2017, dated 2019).

Assays:
JNK3 [1] = biological target: T1, JNK3 (Homo sapiens, UniProt P53779); details: earlier work, reference 23; cited from earlier work
JNK3 [2] = biological target: T1, JNK3; assay: MBP pull-down of purified JNK3; assay type: binding; details: MBP-fusions, compared with T1A
Protocol: FIG. 5. […] Residues that differ between T1A and B1A are shown in magenta. b, c, d) Pull-down of purified JNK3 (b), MKK4 (c), and MKK7 (d) by MBP (negative control), MBP-arrestin-3 (positive control), MBP-T1A, and MBP-B1A, was performed, as described in Methods. Lower panels, Coomassie gels of loaded MBP-fusions; middle panels, Western blots of retained JNK3 (b), MKK4 (c), and MKK7 (d); upper panels, quantification of Western blots from 3-4 independent experiments. […] T1A sequence shown is SEQ ID NO:1. B1A sequence shown is SEQ ID NO:6.
To test the specificity of T1A action, its ability to bind purified MKK4, MKK7, and JNK3 was compared with that of B1A, a homologous N-terminal peptide from closely related arrestin-2, which differs from T1A only in four positions (FIG. 5). […] To test whether this difference in binding translates into differential activity in cells, the ability of YFP-T1A and YFP-B1A to facilitate JNK3 activation were compared in cells over-expressing ASK1, using YFP-arrestin-3 and YFP as positive and negative controls, respectively.
To make MBP-fusions containing arrestin-2/3 elements, the cDNAs encoding arrestin fragments were subcloned into pMal-p2T (generous gift from Dr. Keiji Tanaka, Tokyo Institute of Medical Science) between Eco RI and Xho I sites in frame with MBP, as described^23. […] Eluates were analyzed by SDS-PAGE and Western blotting.

T1 sequence (P53779 whole entry, species assumed, the tested form may be a part): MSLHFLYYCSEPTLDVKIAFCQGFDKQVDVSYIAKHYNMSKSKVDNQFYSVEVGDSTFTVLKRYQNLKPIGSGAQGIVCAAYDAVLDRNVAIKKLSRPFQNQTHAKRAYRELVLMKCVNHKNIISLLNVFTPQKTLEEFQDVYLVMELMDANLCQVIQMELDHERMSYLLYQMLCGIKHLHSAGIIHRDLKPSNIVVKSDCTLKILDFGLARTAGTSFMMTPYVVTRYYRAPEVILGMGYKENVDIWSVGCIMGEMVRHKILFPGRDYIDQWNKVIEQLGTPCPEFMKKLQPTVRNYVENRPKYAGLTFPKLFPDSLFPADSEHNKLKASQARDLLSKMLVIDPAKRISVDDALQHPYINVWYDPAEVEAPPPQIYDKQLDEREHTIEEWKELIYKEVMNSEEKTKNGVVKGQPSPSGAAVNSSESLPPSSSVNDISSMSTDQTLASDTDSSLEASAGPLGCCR

| Substance | JNK3 binding element of arrestin-3 (JNK3 [1]) | binding of JNK3 in MBP pull-down (JNK3 [2]) |
| --- | --- | --- |
| MGEKPGTRVFKKSSPNCKLTVYLGK (bovine) [T1A, first 25 residues of arrestin-3] | key interaction site |  |
| MGDK-GTRVFKKASPNGKLTVYLGK (MGDKGTRVFKKASPNGKLTVYLGK; N-terminal MGDK; bovine) [B1A, homologous N-terminal peptide from arrestin-2, negative control] |  | less robust interaction |
